Source: patent publication US20240218065A1 (SHENGHE CHINA BIOPHARMACEUTICAL, published 2024)
Read-outs that look alike come from different tables or passages of the source.

T1: Human-NKP30-His (Kactus, cat: NKP-HM430) (human, UniProt O14931 19-138, limits assumed)
T1 construct: also called NKP30 protein; NKP30-his protein; not shown: His tag
T1 sequence (looked up): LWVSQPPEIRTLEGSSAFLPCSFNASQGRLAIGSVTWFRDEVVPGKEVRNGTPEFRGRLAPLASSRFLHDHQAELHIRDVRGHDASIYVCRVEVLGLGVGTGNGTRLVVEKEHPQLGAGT

B1: GN15-H (bispecific antibody, human IgG1, kappa)
light: DVVMTQSPLSLPVTPGEPASISCRSSQSLVHSNRNTYLHWYLQKPGQSPQLLIYKVSNRFSGVPDRFSGSGSGTDFTLKISRVEAEDVGVYYCSQNTHVPPTFGQGTKLEIKRTVAAPSVFIFPPSDEQLKSGTASVVCLLNNFYPREAKVQWKVDNALQSGNSQESVTEQDSKDSTYSLSSTLTLSKADYEKHKVYACEVTHQGLSSPVTKSFNRGEC
heavy 1: not shown
heavy 2: QVQLVQSGAEVKKPGASVKVSCKASGYTFTDYEMHWVRQAPGQGLEWMGALDPKTGDTAYSQKFKGRVTLTADKSTSTAYMELSSLTSEDTAVYYCTRFYSYTYWGQGTLVTVSSASTKGPSVFPLAPSSKSTSGGTAALGCLVKDYFPEPVTVSWNSGALTSGVHTFPAVLQSSGLYSLSSVVTVPSSSLGTQTYICNVNHKPSNTKVDKKVEPKSCDKTHTCPPCPGGGGSGGGGSPALLLLLLLRPPATRGITCPPPMSVEHADIWVKSYSLYSRERYICNSGFKRKAGTSSLTECVLNKATNVAHWTTPSLKCIRDPALVHQRPAPPSTVTTAGVTPQPESLSPSGKEGGGGSGGGGSAPELLGGPSVFLFPPKPKDTLMISRTPEVTCVVVDVSHEDPEVKFNWYVDGVEVHNAKTKPREEQYNSTYRVVSVLTVLHQDWLNGKEYKCKVSNKALPAPIEKTISKAKGQPREPQVYTLPPSRDELTKNQVSLTCLVKGFYPSDIAVEWESNGQPENNYKTTPPVLDSDGSFFLASKLTVDKSRWQQGNVFSCSVMHEALHNHYTQKSLSLSPGK
notes: Trifunctional antibody against GPC-3 and NKP30 with IL-15 and IL-15Rα sushi between CH1 and CH2; also called constructed antibody GN15-H; multifunctional antibody
B2: NKP30 humanized antibody (antibody, V domains shown)
VH: EVQLVESGGGLVQPGGSLRLSCAASGITFSRSVMGWFRQAPGKLRELVAGITSDDNTDYADSVKGRFTISRDNSKNTLYLQMNSLRAEDTAVYYCNILPDSRLGWGQGTLVTVSS
notes: detected with anti-human IgG-Fc
B3: GN15-A (bispecific antibody, human IgG1, kappa)
light: EVQLVESGGGLVQPGGSLRLSCAASGITFSRSVMGWFRQAPGKLRELVAGITSDDNTDYADSVKGRFTISRDNSKNTLYLQMNSLRAEDTAVYYCNILPDSRLGWGQGTLVTVSSGGGGSGGGGSGGGGSDVVMTQSPLSLPVTPGEPASISCRSSQSLVHSNRNTYLHWYLQKPGQSPQLLIYKVSNRFSGVPDRFSGSGSGTDFTLKISRVEAEDVGVYYCSQNTHVPPTFGQGTKLEIKRTVAAPSVFIFPPSDEQLKSGTASVVCLLNNFYPREAKVQWKVDNALQSGNSQESVTEQDSKDSTYSLSSTLTLSKADYEKHKVYACEVTHQGLSSPVTKSFNRGEC
heavy 1: not shown
heavy 2: QVQLVQSGAEVKKPGASVKVSCKASGYTFTDYEMHWVRQAPGQGLEWMGALDPKTGDTAYSQKFKGRVTLTADKSTSTAYMELSSLTSEDTAVYYCTRFYSYTYWGQGTLVTVSSASTKGPSVFPLAPSSKSTSGGTAALGCLVKDYFPEPVTVSWNSGALTSGVHTFPAVLQSSGLYSLSSVVTVPSSSLGTQTYICNVNHKPSNTKVDKKVEPKSCDKTHTCPPCPGGGGSGGGGSPALLLLLLLRPPATRGITCPPPMSVEHADIWVKSYSLYSRERYICNSGFKRKAGTSSLTECVLNKATNVAHWTTPSLKCIRDPALVHQRPAPPSTVTTAGVTPQPESLSPSGKEGGGGSGGGGSAPELLGGPSVFLFPPKPKDTLMISRTPEVTCVVVDVSHEDPEVKFNWYVDGVEVHNAKTKPREEQYNSTYRVVSVLTVLHQDWLNGKEYKCKVSNKALPAPIEKTISKAKGQPREPQVYTLPPSRDELTKNQVSLTCLVKGFYPSDIAVEWESNGQPENNYKTTPPVLDSDGSFFLASKLTVDKSRWQQGNVFSCSVMHEALHNHYTQKSLSLSPGK
notes: Trifunctional antibody against GPC-3 and NKP30 with IL-15 and IL-15Rα sushi between CH1 and CH2 of the two heavy chains; IgG1 knob/hole Fc; also called constructed antibody GN15-A; multifunctional antibody

What was measured:
[1] = molecular target: T1, Human-NKP30-His (Kactus, cat: NKP-HM430); assay: ELISA: Human-NKP30-His coated, antibody titrated 3-fold from 10 µg/mL, HRP goat anti-human IgG-Fc, OD450-OD570
Experimental: (§1) Human-NKP30-His (Kactus, cat: NKP-HM430) was diluted to […] with PBS buffer at pH 7.4, added into the 96-well ELISA plate at 100 μL per well, coated overnight at 4° C., and blocked with 1% BSA blocking solution for 1 hour. The plate was washed 3 times with PBST, and the constructed antibodies were diluted to 10 μg/mL with 0.5% BSA sample diluent as the starting concentration, and then diluted by 3-fold gradient (11 gradients in total). A negative control (blank well and IgG1 isotype control) and a positive control were set, and the positive control was a NKP30 humanized antibody (sequence shown in SEQ ID No. 28), and incubated at 37° C. for 1 h at 100 μL per well. […] The absorbance value of each well in the 96-well plate was determined by selecting the wavelength of 450 nm and the reference wavelength of 570 nm on a multifunctional enzyme marker, and the absorbance value (OD)=OD₄₅₀ₙₘ−OD₅₇₀ₙₘ. The logarithm of the concentration of the constructed antibody was taken as the abscissa, and the measured absorbance value of each well was taken as the ordinate, and the Sigmoidaldose-response (Variable Slope) method (GraphPad Prism software, GraphPad Software, San Diego, California) was selected for nonlinear regression to obtain the binding curve of the target antibody to NKP30.

[2] = molecular target: T2, Human-GPC3-His (human, UniProt P51654 25-559, limits assumed); assay: ELISA: Human-GPC3-His coated at 0.5 µg/mL, antibody titrated 3-fold from 10 µg/mL, HRP goat anti-human IgG-Fc, OD450-OD570
T2 construct: Coated on the ELISA plate; also called GPC-3 protein; GPC3 protein; not shown: His tag
Experimental: (§2) Human-GPC3-His was diluted to 0.5 μg/mL with PBS buffer at pH 7.4, added into the 96-well ELISA plate at 100 μL per well, coated overnight at 4° C., and blocked with 1% BSA blocking solution for 1 hour. The plate was washed 3 times with PBST, and the constructed antibody was diluted to 10 μg/mL with 0.5% BSA sample diluent as the starting concentration, and then diluted by 3-fold gradient (11 gradients in total) and incubated at 37° C. for 1 h at 100 μL per well. The plate was washed 3 times with PBST, and then HRP-labelled goat anti-human IgG-Fc was diluted with the sample diluent at 1:20000. 100 μL was added into each well, and incubated at room temperature for 1 hour. A negative control (blank well and IgG1 isotype control) and a positive control were set, and the positive control was a GPC-3 and CD3 bispecial antibody from the literature Hs, A, et al. “Engineering a bispecific antibody with a common light chain: Identification and optimization of an anti-CD3 epsilon and anti-GPC3 bispecific antibody, ERY974.” Methods 154 (2019): 10-20. (The GPC-3 and CD3 bispecial antibody sequence consists of SEQ ID No. 22, SEQ ID No. 23, and SEQ ID No. 24). The plate was washed 4 times with PBST, and 100 μL of TMB substrate was added into each well, and incubated at room temperature without light for 10 minutes. 100 μL of 1 M HCl solution was added into each well to terminate the color development reaction. The absorbance value of each well in the 96-well plate was determined by selecting the wavelength of 450 nm and the reference wavelength of 570 nm on a multifunctional enzyme marker, and the absorbance value (OD)=OD₄₅₀ₙₘ−OD₅₇₀ₙₘ. The logarithm of the concentration of the constructed antibody was taken as the abscissa, and the measured absorbance value of each well was taken as the ordinate, and the Sigmoidaldose-response (Variable Slope) method (GraphPad Prism software, GraphPad Software, San Diego, California) was selected for nonlinear regression to obtain the binding curve of the target antibody to the GPC-3 protein.

[3] = molecular target: T1, Human-NKP30-His (Kactus, cat: NKP-HM430); assay: ELISA: Human-NKP30-His coated, antibody titrated 3-fold from 10 µg/mL, HRP goat anti-human IgG-Fc, OD450-OD570; remark: listed apart in the source
Experimental: as §1

[4] = molecular target: T1, Human-NKP30-His (Kactus, cat: NKP-HM430); assay: as above; remark: listed apart in the source
Experimental: Human-NKP30-His (Kactus, cat: NKP-HM430) was diluted to […] with PBS buffer at pH 7.4, added into the 96-well ELISA plate at 100 μL per well, coated overnight at 4° C., and blocked with 1% BSA blocking solution for 1 hour. The plate was washed 3 times with PBST, and the constructed antibodies were diluted to 10 μg/mL with 0.5% BSA sample diluent as the starting concentration, and then diluted by 3-fold gradient (11 gradients in total). A negative control (blank well and IgG1 isotype control) and a positive control were set, and the positive control was a NKP30 humanized antibody (sequence shown in SEQ ID No. 28), and incubated at 37° C. for 1 h at 100 μL per well. The plate was washed 3 times with PBST, and then HRP-labelled goat anti-human IgG-Fc was diluted with the sample diluent at 1:20000. 100 μL was added into each well, and incubated at room temperature for 1 hour. The plate was washed 4 times with PBST, and 100 μL of TMB substrate was added into each well, and incubated at room temperature without light for 10 minutes. 100 μL of 1 M HCl solution was added into each well to terminate the color development reaction. The absorbance value of each well in the 96-well plate was determined by selecting the wavelength of 450 nm and the reference wavelength of 570 nm on a multifunctional enzyme marker, and the absorbance value (OD)=OD₄₅₀ₙₘ−OD₅₇₀ₙₘ. The logarithm of the concentration of the constructed antibody was taken as the abscissa, and the measured absorbance value of each well was taken as the ordinate, and the Sigmoidaldose-response (Variable Slope) method (GraphPad Prism software, GraphPad Software, San Diego, California) was selected for nonlinear regression to obtain the binding curve of the target antibody to NKP30.

[5] = molecular target: T1, Human-NKP30-His (Kactus, cat: NKP-HM430); assay: as above; remark: listed apart in the source
[6] = molecular target: T2, Human-GPC3-His; assay: ELISA: Human-GPC3-His coated at 0.5 µg/mL, antibody titrated 3-fold from 10 µg/mL, HRP goat anti-human IgG-Fc, OD450-OD570; remark: listed apart in the source
Experimental: as §2

T2 sequence (P51654 25-559 limits assumed): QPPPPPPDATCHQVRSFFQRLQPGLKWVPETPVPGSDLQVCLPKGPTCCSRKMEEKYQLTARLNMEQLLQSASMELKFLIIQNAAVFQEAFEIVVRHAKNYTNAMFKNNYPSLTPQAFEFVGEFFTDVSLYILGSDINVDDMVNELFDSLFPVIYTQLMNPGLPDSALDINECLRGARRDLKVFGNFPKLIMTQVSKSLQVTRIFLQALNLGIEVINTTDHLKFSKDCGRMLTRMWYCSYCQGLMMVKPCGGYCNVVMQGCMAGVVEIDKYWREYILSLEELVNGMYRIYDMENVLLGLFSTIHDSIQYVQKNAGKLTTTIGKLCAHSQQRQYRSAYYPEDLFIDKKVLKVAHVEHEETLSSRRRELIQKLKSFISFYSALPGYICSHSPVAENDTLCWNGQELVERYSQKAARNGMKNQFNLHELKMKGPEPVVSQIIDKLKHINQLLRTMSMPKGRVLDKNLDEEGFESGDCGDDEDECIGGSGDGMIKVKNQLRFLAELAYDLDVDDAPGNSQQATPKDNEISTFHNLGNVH

Binder | EC50 (read off the curve) [1] [µg/mL] | EC50 (read off the curve) [2] [µg/mL] | EC50 (read off the curve) [3] [µg/mL] | EC50 (read off the curve) [4] [µg/mL] | EC50 (read off the curve) [5] [µg/mL] | EC50 (read off the curve) [6] [µg/mL]
B1 | ~0.06 | ~0.01 |  |  |  | 
B2 | ~0.03 |  | ~0.03 | ~0.03 | ~0.03 | 
B3 |  |  | ~0.02 |  |  | ~0.03
